Data set [1] deals with the molecule itself. Put plainly: SEC; Superdex-75 column (10/300 mm), 20 mM Caps, pH 9.4, 0.5 M NaCl, 0.5 mL/min; refolded R119G mutant. On the technique in general: Size exclusion chromatography separates by hydrodynamic size, large species first.
Data set [2] concerns the molecule itself. Put plainly: SEC; R119H mutant (Fig. S4); column and buffer not stated.

B1: Human P5CR1 R119G mutant (enzyme, UniProt P32322 1-319, looked up)
chain: MSVGFIGAGQLAFALAKGFTAAGVLAAHKIMASSPDMDLATVSALRKMGVKLTPHNKETVQHSDVLFLAVKPHIIPFILDEIGADIEDRHIVVSCAAGVTISSIEKKLSAFRPAPRVIGCMTNTPVVVREGATVYATGTHAQVEDGRLMEQLLSSVGFCTEVEEDLIDAVTGLSGSGPAYAFTALDALADGGVKMGLPRRLAVRLGAQALLGAAKMLLHSEQHPGQLKDNVSSPGGATIHALHVLESGGFRSLLINAVEASCIRTRELQSMADQEQVSPAAIKKTILDKVKLDSPAGTALSPSGHTKLLPRSLAPAGKD
notes: Pyrroline-5-carboxylate reductase 1 (P5CR1), human, encoded by PYCR1, with the ARCL-associated mutation R119G; monomer molecular weight printed as 33.3 kDa; Made by PCR mutagenesis of WT-pET28a-P5CR1; also called R119G P5CR1; pET28a-P5CR1-R119G; source: E. coli BL21 (DE3), inclusion bodies, denatured in 6 M urea, purified (Ni2+-chelating column), renatured, SEC
In general, stoichiometry N refers to the number of molecules, sites or subunits per partner or assembly. With B1, in data set [1], the “stoichiometry N” value amounted to 2.

B2: Human P5CR1 R119H mutant (enzyme, UniProt P32322 1-319, looked up)
chain: MSVGFIGAGQLAFALAKGFTAAGVLAAHKIMASSPDMDLATVSALRKMGVKLTPHNKETVQHSDVLFLAVKPHIIPFILDEIGADIEDRHIVVSCAAGVTISSIEKKLSAFRPAPRVIHCMTNTPVVVREGATVYATGTHAQVEDGRLMEQLLSSVGFCTEVEEDLIDAVTGLSGSGPAYAFTALDALADGGVKMGLPRRLAVRLGAQALLGAAKMLLHSEQHPGQLKDNVSSPGGATIHALHVLESGGFRSLLINAVEASCIRTRELQSMADQEQVSPAAIKKTILDKVKLDSPAGTALSPSGHTKLLPRSLAPAGKD
notes: Pyrroline-5-carboxylate reductase 1 (P5CR1), human, encoded by PYCR1, with the mutation R119H; source: expressed mostly as inclusion bodies, purified with a Ni2+-chelating column; plasmid constructed 'by the previous method'
As for B2, the “stoichiometry N” value in data set [2] came to 2.

These data come from article PMC5286483, “Effect of R119G Mutation on Human P5CR1 Dynamic Property and Enzymatic Activity” (BioMed Research International, 2017).
